The koff is a measure of how fast the partners let go of each other. For orientation: kon means a measure of how fast the partners come together. A high value points to fast association.

Assay [1] concerns the target human Fc-NKG2D (human) (UniProt P26718). The assay is described as follows: SPR (BIAcore 2000), human Fc-NKG2D immobilized on chip; bivalent binding (virtual affinity, avidity). Background: SPR reads the build-up and loss of mass on a sensor chip optically.
Assay [2] shares this target. The assay is described as follows: SPR (BIAcore 2000), human Fc-NKG2D immobilized on chip; bivalent IgG.
Assay [3] addresses human NKG2D, cell surface (human) (UniProt P26718). The assay is described as follows: cell-based or functional assay.

Chain of human NKG2D, cell surface (human) (P26718 whole entry): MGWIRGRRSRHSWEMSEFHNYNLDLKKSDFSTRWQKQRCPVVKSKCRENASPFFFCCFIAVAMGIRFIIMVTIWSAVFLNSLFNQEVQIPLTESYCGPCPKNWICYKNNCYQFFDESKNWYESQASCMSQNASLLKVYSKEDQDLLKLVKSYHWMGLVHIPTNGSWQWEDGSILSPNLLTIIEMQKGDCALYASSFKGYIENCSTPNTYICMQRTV
Chain of human Fc-NKG2D (human) (P26718 78-216 limits assumed): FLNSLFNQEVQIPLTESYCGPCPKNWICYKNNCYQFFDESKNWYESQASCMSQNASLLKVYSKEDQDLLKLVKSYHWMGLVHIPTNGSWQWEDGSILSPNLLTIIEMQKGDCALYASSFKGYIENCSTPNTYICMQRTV

In the assay with human Fc-NKG2D (human) [1], “mouse anti-human NKG2D mAb 149810 (antibody)” yielded a Kd of 0.36 nM. Besides, in the assay with human Fc-NKG2D (human) [2], the koff amounted to 5.1e-05 s⁻¹ and the kon was 140000 M⁻¹ s⁻¹. Moreover, in assay [3], the percentage of degranulated NK cells (CD56+ CD107a/CD107b+) among total NK cells (CD56+), immobilized antibody, Donor 1 amounted to 13.6%; the percentage of degranulated NK cells (CD56+ CD107a/CD107b+) among total NK cells (CD56+), immobilized antibody, Donor 2 stood at 16.3%; the percentage of degranulated NK cells (CD56+ CD107a/CD107b+) among total NK cells (CD56+), immobilized antibody, Donor 3 was 24.3%; the percentage of degranulated NK cells (CD56+ CD107a/CD107b+) among total NK cells (CD56+), immobilized antibody, Donor 4 came to 8.4%.

The values are drawn from patent publication US20110150870A1.
